In PMC3736351 (2014):

Key:
[1] = molecular target: T1, GHRH receptor (spleen cells, 3- and 14-month old rats) (Rattus norvegicus, UniProt Q02644); experiment: homologous competitive radioligand binding
T1 chain: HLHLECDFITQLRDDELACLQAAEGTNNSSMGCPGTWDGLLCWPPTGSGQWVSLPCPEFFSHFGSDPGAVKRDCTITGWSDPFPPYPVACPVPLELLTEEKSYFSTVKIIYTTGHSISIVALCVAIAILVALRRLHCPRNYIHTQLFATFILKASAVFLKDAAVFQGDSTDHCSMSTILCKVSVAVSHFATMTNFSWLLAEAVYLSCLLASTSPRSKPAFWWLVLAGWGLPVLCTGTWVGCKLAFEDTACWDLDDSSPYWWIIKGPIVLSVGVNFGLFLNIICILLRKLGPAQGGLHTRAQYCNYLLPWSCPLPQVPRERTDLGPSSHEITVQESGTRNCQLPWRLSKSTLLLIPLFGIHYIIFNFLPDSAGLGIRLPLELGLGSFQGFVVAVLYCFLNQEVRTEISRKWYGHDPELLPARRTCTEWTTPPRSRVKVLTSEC

[2] = molecular target: T2, GHRH receptor (thymus cells, 3- and 14-month old rats) (Rattus norvegicus, UniProt Q02644); experiment: homologous competitive radioligand binding
T2 chain: T1 chain

With MPLWVFFFVILTLSNSSHCSPPPPLTLRM [GHRH 1-29] the Kd [1] was 2 nM and the Kd [2] was 1 nM.
